From publication PMC12046049, “Filamin C dimerisation is regulated by HSPB7” (Nature Communications, 2025)
Positions count from the first letter of the chain named. In names and notes the source's numbering stands.

T1: HSPB5ACD (α-crystallin domain of HSPB5) (human)
T1 chain: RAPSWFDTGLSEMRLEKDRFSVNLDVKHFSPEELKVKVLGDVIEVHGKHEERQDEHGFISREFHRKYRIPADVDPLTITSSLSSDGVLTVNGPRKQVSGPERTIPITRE

B1: HSPB5 C-terminal peptide (cognate peptide of HSPB5ACD) (peptide)
chain: ERTIPITRE
modifications: Limits are not printed. 156-164, containing the IPI motif, is taken by convention from the peptide in the HSPB5 ACD-peptide structure PDB 4M5S; check residues come from the IPI motif, not numbered in
B2: FLNCd24 (domain 24 of filamin C, residues 2630-2724), wild type (domain or fragment, human)
chain: GSKFSSDASKVVTRGPGLSQAFVGQKNSFTVDCSKAGTNMMMVGVHGPKTPCEEVYVKHMGNRVYNVTYTVKEKGDYILIVKWGDESVPGSPFKVKV
notes: residual Gly-Ser overhang left on the N-terminus after TEV cleavage of the His6 tag; filamin C, human, C-terminal Ig-like domain 24, residues 2630-2724; also called FLNCd24 WT; source: E. coli BL21(DE3), purified (HisTrap, TEV cleavage); not shown: His6, N-terminal, cleaved
B3: FLNCd24^Y2683E (phosphomimic) (domain or fragment, human)
chain: B2 chain with Y56E
notes: residual Gly-Ser overhang left on the N-terminus after TEV cleavage of the His6 tag; filamin C, human, domain 24, residues 2630-2724, Y2683E; source: E. coli BL21(DE3), purified (HisTrap, TEV cleavage); not shown: His6, N-terminal, cleaved
B4: HSPB7ACD (α-crystallin domain, residues 78-162 of isoform 2) (domain or fragment)
chain: not shown
notes: residual Gly-Ser overhang left on the N-terminus after TEV cleavage of the His6 tag; HSPB7, human, core α-crystallin domain, residues 78-162 of isoform 2; numbers count on: isoform 2 (Q9UBY9-2); source: E. coli BL21(DE3), purified (HisTrap, TEV cleavage, HiTrap Q); not shown: His6, N-terminal, cleaved
B5: FLNCd24^T2677D (phosphomimic) (domain or fragment, human)
chain: B2 chain with T50D
notes: residual Gly-Ser overhang left on the N-terminus after TEV cleavage of the His6 tag; filamin C, human, domain 24, residues 2630-2724, T2677D; source: E. coli BL21(DE3), purified (HisTrap, TEV cleavage); not shown: His6, N-terminal, cleaved
B6: HSPB7ACD^C131S (domain or fragment)
chain: not shown
notes: residual Gly-Ser overhang left on the N-terminus after TEV cleavage of the His6 tag; HSPB7, human, core α-crystallin domain, residues 78-162 of isoform 2, C131S; numbers count on: isoform 2 (Q9UBY9-2); Mutation made to aid crystallisation; source: E. coli BL21(DE3), purified (HisTrap, TEV cleavage, HiTrap Q); not shown: His6, N-terminal, cleaved
B7: HSPB1 C-terminal peptide (cognate peptide of HSPB1ACD) (peptide)
chain: ITIPVTFE

Assays:
[1] = molecular target: T1, HSPB5ACD (α-crystallin domain of HSPB5); experiment: native MS; ACD incubated with C-terminal peptide, peptide titration; 200 mM ammonium acetate pH 6.9; acetonitrile added to the source housing; fit with a Hill slope model for 1:1 binding; conditions: both partners purified
[2] = molecular target: the molecule itself; experiment: native MS; titration of FLNCd24 (WT or phosphomimic) alone; dimer to monomers; 200 mM ammonium acetate pH 6.9; three technical repeats
[3] = molecular target: T2, HSPB7ΔN (residues 78-175 of isoform 2) (human, UniProt Q9UBY9-2 78-175); experiment: native MS; HSPB7 construct at a range of FLNCd24 concentrations; competitive homo- and hetero-dimerisation fitted as a system of coupled equilibria; 200 mM ammonium acetate pH 6.9; conditions: both partners purified
T2 construct: residual Gly-Ser overhang left on the N-terminus after TEV cleavage of the His6 tag; HSPB7, human, residues 78-175 of isoform 2 (lacks the N-terminal region); numbers count on: isoform 2 (Q9UBY9-2); source: E. coli BL21(DE3), purified (HisTrap, TEV cleavage, HiTrap Q); not shown: His6, N-terminal, cleaved

[4] = molecular target: the molecule itself; experiment: native MS; FLNCd24 alone, and mixed at a monomer ratio of 1:1 with HSPB7, HSPB7ΔN or HSPB7ACD; 200 mM ammonium acetate pH 6.9 (full-length HSPB7: 1 M)
[5] = molecular target: B2; experiment: native MS; HSPB7 construct at a range of FLNCd24 concentrations; competitive homo- and hetero-dimerisation fitted as a system of coupled equilibria; 200 mM ammonium acetate pH 6.9; conditions: both partners purified
[6] = molecular target: B5; experiment: as above; conditions: both partners purified
[7] = molecular target: B3; experiment: as above; conditions: both partners purified
[8] = molecular target: B2; experiment: crystal structure; HSPB7ACD^C131S and FLNCd24 mixed 4:1, heterodimer isolated by gel filtration in 20 mM HEPES pH 8.0; crystals in 0.1 mM HEPES, 20% w/v PEG 8000, pH 7.0; 2.9 Å; conditions: both partners purified
[9] = molecular target: T3, HSPB1ACD (α-crystallin domain of HSPB1) (human); experiment: native MS; ACD incubated with C-terminal peptide, peptide titration; 200 mM ammonium acetate pH 6.9; acetonitrile added to the source housing; fit with a Hill slope model for 1:1 binding; conditions: both partners purified
T3 construct: HSPB1, human, α-crystallin domain; also called ACD of HSPB1

Binder: B1
Kd [1]: ≤ 100 µM

Binder: B2
Kd [2]: 0.0759 ± 0.0084 µM
Kd [3]: 0.0067 ± 0.0014 µM
stoichiometry N [4]: 2

Binder: B3
Kd [2]: 4.05 ± 0.557 µM

Binder: B4
Kd [5]: 0.0039 ± 0.0009 µM
Kd [6]: 0.0141 ± 0.0005 µM
Kd [7]: 0.0022 ± 0.0006 µM

Binder: B5
Kd [2]: 0.0085 ± 0.001 µM

Binder: B6
binding result [8]: binds

Binder: B7
Kd [9]: ≤ 100 µM
